Source: patent US20210395344A1 (TWIST BIOSCIENCE, published 2021)
Positions count from the first letter of the chain named. Read-outs that look alike come from different tables or passages of the source.

B1: 4-124 (antibody, V domains shown)
VH: EVQLVESGGGLVQPGGSLRLSCAASGNIFTRNVMGWFRQAPGKEREFVAAITSSGSTNYADSVKGRFTISADNSKNTAYLQMNSLKPEDTAVYYCARPSSDLQGGVDYWGQGTLVTVSS
B2: 1-32 (antibody, V domains shown)
VH: EVQLLESGGGLVQPGGSLRLSCAASGFTFSSYAMYWVRQAPGKGLEWVSAISGSGGSTFYADSVKGRFTISRDNSKNTLYLQMNSLRAEDTAVYYCTRPPYGDYGDYWGQGTLVTVSS
VL: QSALTQPASVSGSPGQSITISCTGTSSDVGGYNLVSWYQQHPGKAPKLMIYEGNKRPSGVSNRFSGSKSGNTASLTISGLQAEDEADYYCCSYAGSSTFPVVFGGGTKLTVL
B3: 4-119 (antibody, V domains shown)
VH: EVQLVESGGGLVQPGGSLRLSCAASGFAFSSYAMGWFRQAPGKEREWVATINGDDYTYYADSVKGRFTISADNSKNTAYLQMNSLKPEDTAVYYCVATPGGYGLWGQGTLVTVSS
B4: 1-42 (antibody, V domains shown)
VH: EVQLLESGGGLVQPGGSLRLSCAASGVTFSSYAMSWVRQAPGKGLEWVSAITGSGGSTYYADSVKGRFTISRDNSKNTLYLQMNSLRAEDTAVYYCAKHGSGTIFGVVIAKYYFDYWGQGTLVTVSS
VL: QSALTQPASVSGSPGQSITISCTGTSSDVGRYNLVSWYQQHPGKAPKLMIYEGGKRPSGVSNRFSGSKSGNTASLTISGLQAEDEADYYCCSYASSSTLVFGGGTKLTVL
B5: 1-29 (antibody, V domains shown)
VH: EVQLLESGGGLVQPGGSLRLSCAASGFTFSSYAMYWVRQAPGKGLEWVSAISGSAGSTYYADSVKGRFTISRDNSKNTLYLQMNSLRAEDTAVYYCARDTNDFWSGYSIFDPWGQGTLVTVSS
VL: B4 VL with V29I, R31S, G54T, S95G, S97R, L99Y
B6: 1-17 (antibody, V domains shown)
VH: B5 VH
VL: B4 VL with V29I, R31S, G54T, S95G, S97R, L99Y
B7: 4-139 (antibody, V domains shown)
VH: EVQLVESGGGLVQPGGSLRLSCAASGGGTFGSYAMGWFRQAPGKEREFVAAISIASGASGGTTNYADSVKGRFTISADNSKNTAYLQMNSLKPEDTAVYYCATTMNPNPRWGQGTLVTVSS
B8: 1-53 (antibody, V domains shown)
VH: EVQLLESGGGLVQPGGSLRLSCAASGFTFSSYTMSWVRQAPGKGLEWVSVISGSGGSTYYADSVKGRFTISRDNSKNTLYLQMNSLRAEDTAVYYCAREGYRDYLWYFDLWGQGTLVTVSS
VL: QSALTQPASVSGSPGQSITISCTGTSTDVGSYNLVSWYQQHPGKAPKLMIYEGTKRPSGVSNRFSGSKSGNTASLTISGLQAEDEADYYCCSYAGSYTSVVFGGGTKLTVL
B9: 1-2 (antibody, V domains shown)
VH: EVQLLESGGGLVQPGGSLRLSCAASGFTFSSQAMSWVRQAPGKGLEWVSAISGSGGGTYYADSVKGRFTISRDNSKNTLYLQMNSLRAEDTAVYYCAKDRRFGEFDPWGQGTLVTVSS
VL: B8 VL with T27S, D28G, T54I, Y97S, T98S, S99F
B10: 1-12 (antibody, V domains shown)
VH: B4 VH with V27I, A50G, T52S
VL: B8 VL with T27S, S31H, Y97S, T98S, S99F
B11: 1-27 (antibody, V domains shown)
VH: EVQLLESGGGLVQPGGSLRLSCAASGFTFSSYAMTWVRQAPGKGLEWVSAISGSGGGTYYADSVKGRFTISRDNSKNTLYLQMNSLRAEDTAVYYCASSSSWQFDYWGQGTLVTVSS
VL: B8 VL with T27S, D28Y, S31H, T54S, K55R, S99H, V100Y
B12: 1-33 (antibody, V domains shown)
VH: B2 VH with Y35I
VL: B8 VL with T27S, V35L, G53A, T54S, Y97R, S99P

How the values were obtained:
human ACE2 = human ACE2 (human, UniProt Q9BYF1 18-740)
[1] = biological target: T1, SARS-CoV-2 Spike Glycoprotein S1 (subunit 1) (SARS-CoV-2, UniProt P0DTC2 16-685); assay: column DC/S1 (format not explained)
T1 construct: also called S1 Monomer; SARS-CoV-2 S1

[2] = biological target: T1, SARS-CoV-2 Spike Glycoprotein S1 …; assay: screening phage ELISA, mean
[3] = biological target: T1, SARS-CoV-2 Spike Glycoprotein S1 …
[4] = biological target: T1, SARS-CoV-2 Spike Glycoprotein S1 …; assay: column Fc/S1 (format not explained)
[5] = biological target: T1, SARS-CoV-2 Spike Glycoprotein S1 …; assay: screening phage ELISA, mean; remark: listed apart in the source
[6] = biological target: T1, SARS-CoV-2 Spike Glycoprotein S1 …; assay: antibody kinetics, sensorgrams with fits; column S1
[7] = biological target: T1, SARS-CoV-2 Spike Glycoprotein S1 …; assay: ELISA binding titration
[8] = biological target: T2, SARS-CoV-2 S protein trimer (SARS-CoV-2, UniProt P0DTC2 16-1213); assay: column DB/S-T (format not explained)
[9] = biological target: T2, SARS-CoV-2 S protein trimer; assay: column Fc/S-T (format not explained)
SARS-CoV-2 S1 RBD = SARS-CoV-2 S1 RBD (SARS-CoV-2, UniProt P0DTC2 319-541)
[10] = biological target: T1, SARS-CoV-2 Spike Glycoprotein S1 …; assay: column Inhibitor IC50 (assay not explained)
[11] = biological target: T1, SARS-CoV-2 Spike Glycoprotein S1 …; assay: column DC/S1 (format not explained); clone 1-27
[12] = biological target: T2, SARS-CoV-2 S protein trimer; assay: column DC/S-T (format not explained)

Sequence of human ACE2 (Q9BYF1 18-740 limits assumed): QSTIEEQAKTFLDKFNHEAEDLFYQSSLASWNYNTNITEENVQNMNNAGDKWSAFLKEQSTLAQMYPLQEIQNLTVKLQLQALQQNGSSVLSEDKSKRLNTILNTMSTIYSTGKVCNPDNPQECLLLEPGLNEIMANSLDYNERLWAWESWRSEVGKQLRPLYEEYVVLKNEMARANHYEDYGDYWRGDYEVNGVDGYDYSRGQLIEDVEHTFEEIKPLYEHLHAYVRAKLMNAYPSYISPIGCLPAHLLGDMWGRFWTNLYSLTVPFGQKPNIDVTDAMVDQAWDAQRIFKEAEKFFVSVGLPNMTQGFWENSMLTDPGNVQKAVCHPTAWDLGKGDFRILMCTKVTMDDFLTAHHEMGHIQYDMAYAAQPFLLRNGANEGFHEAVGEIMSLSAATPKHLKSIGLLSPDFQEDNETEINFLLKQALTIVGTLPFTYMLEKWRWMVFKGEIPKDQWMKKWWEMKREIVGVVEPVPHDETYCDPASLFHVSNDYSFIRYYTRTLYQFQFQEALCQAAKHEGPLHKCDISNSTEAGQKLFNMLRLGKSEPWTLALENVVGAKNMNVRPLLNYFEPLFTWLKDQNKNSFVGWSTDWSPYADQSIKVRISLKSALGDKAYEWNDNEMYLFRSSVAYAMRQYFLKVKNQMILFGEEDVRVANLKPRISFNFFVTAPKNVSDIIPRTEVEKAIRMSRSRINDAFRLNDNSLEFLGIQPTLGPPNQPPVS

Binder | ELISA (Avg) [2] | ELISA (Avg) [5] | EC50 [7] [µM] | Kd [9] [µM] | also measured
B1 | – | – | – | – | IC50 (human ACE2): 0.0544 µM
B2 | 17.9 | 17.9 | – | – | Kd [1]: 0.0148 µM; IC50 [3]: 0.0322 µM; Kd [4]: 2.98 µM
B3 | – | – | – | – | IC50 (human ACE2): 0.00437 µM
B4 | – | – | 0.00792 | – | Kd [6]: 0.364 µM
B5 | 23.8 | 23.8 | – | 0.0193 | Kd [8]: 0.0361 µM
B6 | 27.4 | 27.4 | – | 0.01 | Kd [1]: 6.65 µM
B7 | – | – | – | – | IC50 (human ACE2): 0.0202 µM
B8 | 21.7 | 21.7 | 0.0103 | – | IC50 (SARS-CoV-2 S1 RBD): 0.0143 µM; IC50 [10]: 1.43 µM
B9 | 24.2 | 24.2 | 0.000523 | – | Kd [8]: 0.304 µM
B10 | 25.7 | 25.7 | 0.00215 | 0.014 | Kd [6]: 0.0061 µM; IC50 [10]: 0.033 µM; Kd [4]: 0.0061 µM
B11 | 27.2 | 27.2 | 0.000148 | 0.0096 | Kd [11]: 5.52 µM; Kd [4]: 0.0096 µM
B12 | 17.6 | 17.6 | 0.0175 | – | Kd [1]: 0.0081 µM; Kd [12]: 1740 µM
